The data set can be described thus: soluble on expression in E. coli; label from the status in PepcDB or PDB records.
With “GMSAQAKNKLEALKAMTTVVADTGDIEAIKQFKPVDATTNPSLILKAAKLANYQHLIEEAIDWALQIKGNDKNSQTTLENVGDKLAVNIGCEVLTSIPGVISTEVDARLSFDTQATVAKARKLIRLYQDAGIDSDRILIKIASTWEGIQAAKILEAEGIHCNLTLLFHFAQAQACAEAGTTLISPFVGRILDWYKANSGQSEYSASEDPGVVSVTEIYNFYKSHGFKTIVMGASFRNTGEIEELAGCDRLTISPELLAQLEADTSPLEQKLFPIKETKDTPELLTEASFRWAMNNDPMAHDKLADGIRRFAADQVTLESMLSKKISQRS”, the “soluble on expression in E. coli” value was “soluble”.

In the case of “MLEFSSEVSLLDSVKNILLEYGLRFQEPQIEKVDKYIEELLGVPYNLTAHRDLDSAVHKNVVEILLPLKEELKGTLLDVGSGNGVPGLILAIFFSKLKVVLLDSREKSVNFLRGVIEKLDLENVSVVKERAENFSKERREEFDYVTARAVARLNVLVEICTPALKTGGKLLFYKGPSYIEELKEAQRAMKELKVELEKVREYSLKTGERRALLILRKYESSPEKYPRRVGVPFKRPLL”, the “soluble on expression in E. coli” value is recorded as “soluble”.

With “MGSDKIHHHHHHMIELKNVSMIFNPGTVNENQAISNISLKVREGDFITVIGSNGAGKSTLFNLIAGTITPSSGSIFLNDRNITREPEYKRARYIGRIFQNPLLGTASTMSLEDNMMITYKKGFKWLKRSLNHKMREYFRTELVQLKMGLEDRMKENLALFSGGQRQALTLLMMVLSRPDLILLDEHTAALDPKNAQIVLELTDKFIREYNLTAMMITHNMSHAIEYGNRLLMMDKGEIIFEAEGEEKRALTVEKLIDKFHQIRHTSFENDRTLLSDD”, the “soluble on expression in E. coli” value is “not soluble”.

For the sequence “MIKPALLDKKIEKPHSWEDIPHGEWICELIQSRLDEWCPKLFGYHMLKIGGLSAELDSRFCNIKHQVNLDNKNSLRNITAELPQLPFLEKSIDACVLAHQLDYSSDPHQLLREIDRVLIGDGYVILTGFNPMSAIGLASLFPWRKNNLPWSGRMFTPHRIKDWLSVLNFEVVYSDCFALAPLTRYRTMWTWFEGLGGDAVKPISGIYFIVARKRTYPLRPIKSAWKKKPKLAPISVAQTRQGKMKSD”, the “soluble on expression in E. coli” value is on record as “not soluble”.

For the sequence “VSGTRPAARRTNLTAAQNVVRSVDAEERIAWVSKALCRTTDPDELFVRGAAQRKAAVICRHCPVMQECAADALDNKVEFGVWGGMTERQRRALLKQHPEVVSWSDYLEKRKRRTGTAG”, the “soluble on expression in E. coli” value was “soluble”.

Turning to “AKTKAAVSMEGFSWGNYINSNSFIAAPVTCFKHAPMGTCWGDISENVRVEVPNTDCSLPTKVFWIAGIVKLAGYNALLRYEGFENDSGLDFWCNICGSDIHPVGWCAASGKPLVPPRTIQHKYTNWKAFLVKRLTGAKTLPPDFSQKVSESMQYPFKPCMRVEVVDKRHLCRTRVAVVESVIGGRLRLVYEESEDRTDDFWCHMHSPLIHHIGWSRSIGHRFKRSDITKKQDGHFDTPPHLFAKVKEVDQSGEWFKEGMKLEAIDPLNLSTICVATIRKVLADGFLMIGIDGSEAADGSDWFCYHATSPSIFPVGFCEINMIELTPPRGYTKLPFKWFDYLRETGSIAAPVKLFNKDVPNHGFRVGMKLEAVDLMEPRLICVATVTRIIHRLLRIHFDGWEEEYDQWVDCESPDLYPVGWCQLTGYQLQPPASQSSR”, the “soluble on expression in E. coli” value was “soluble”.

As to “MRQPEDGNIRLWRYMDFSKFVALISSKSLFLNRVDRFTDPYEGHFSSLNNRLRNSIYEAKYAGSEIDPHKVASAIFDFNSFSRQWTYVNCWHANKYESAAMWDLYAKTEEAIAIETDYNSLAAVLPSEAQLGFVEYIDFDTEWMPENNATYPYLHKRKSFEHEKEVRIIVQEIPRAKSGVGFDREAVNDKHGISLDIDLNQLIKSIHVSPTAPKWLVDLTDTVSKTFGIDAHVKQSDLYKAPIK”, the “soluble on expression in E. coli” value is recorded as “soluble”.

Consider “MIEKVYCQEVKPELDGKKVRLAGWVYTNMRVGKKIFLWIRDSTGIVQAVVAKNVVGEETFEKAKKLGRESSVIVEGIVKADERAPGGAEVHVEKLEVIQAVSEFPIPENPEQASPELLLDYRHLHIRTPKASAIMKVKETLIMAAREWLLKDGWHEVFPPILVTGAVEGGATLFKLKYFDKYAYLSQSAQLYLEAAIFGLEKVWSLTPSFRAEKSRTRRHLTEFWHLELEAAWMDLWDIMKVEEELVSYMVQRTLELRKKEIEMFRDDLTTLKNTEPPFPRISYDEAIDILQSKGVNVEWGDDLGADEERVLTEEFDRPFFVYGYPKHIKAFYMKEDPNDPRKVLASDMLAPEGYGEIIGGSQREDDYDKLLNRILEEGMDPKDYEWYLDLRRYGSVPHSGFGLGVERLVAWVLKLDHIRWAALFPRTPARLYP”, for which the “soluble on expression in E. coli” value is listed as “soluble”.

Turning to “MTEVKAMTKFYDVTFQELSGRSVVKTEVASDREPFDVWQDACASYSETELNIQINEDTFVTLNRHFVVRIDVKEVDGPVDKQVRRRDELMNVVNTLSNMGL”, the “soluble on expression in E. coli” value is “soluble”.

For the sequence “VAKMRFIDIGANLLDEMYTGQYNDKPYHPPDLSAVLERAWAAGLEKLMITAGSLKEARAALELAKTDERLYCTVGCHPTRCKEFEDHPGGPEAYLQELLEVLKEGQALGKVVAVGECGLVATDYERLHFCDADTQKKYFEAQFRLAKESGLPMFLHLRAAADDFLDITGRHLGDFPRGGVVHSFDGTAEEAARVLAVPQLAIGINGCSLKTDDNLAVVGGLPLERIMLETDCPWCEIRPTHAGRKHVSAEALAGVTGAKDRKKFMPGCQVKSRNEPANIRQVLEVVAGVKGRTDLEAVADVIFGNTERMFFPTA”, the “soluble on expression in E. coli” value is given as “not soluble”.

As to “MKDFKLAKSKSHAIEETKPFSILLMGVDTGSEHRKSKWSGNSDSMILVTINPKTNKTTMTSLERDVLIKLSGPKNNGQTGVEAKLNAAYASGGAEMALMTVQDLLDINVDYFMQINMQGLVDLVNAVGGITVTNKFDFPISIAANEPEYKAVVEPGTHKINGEQALVYSRMRYDDPEGDYGRQKRQREVIQKVLKKILALNSISSYKKILSAVSNNMQTNIEISSKTIPNLLAYKDSLEHIKSYQLKGEDATLSDGGSYQILTKKHLLAVQNRIKKELDKKRSKTLKTSAILYEDYYGLEHHHHHH”, the “soluble on expression in E. coli” value is reported as “soluble”.

With “VSIKKSSGLNFDNTAIAINAGKGLEFDTNTSESPDINPIKTKIGSGIDYNENGAMITKLGAGLSFDNSGAITIGNKNDDKGSGYIPEAPRDGQAYVRKDGEWVLLSTFL”, the “soluble on expression in E. coli” value is on record as “soluble”.

For “MGSDKIHHHHHHMFNAQYFRTFITLVETGSFTHTARKLEMTQPGVSQHIRKLERYLDKSLLYRHGRRFTLTETGRRAYDYAVKLFAEHEQFRHSLDNDSPDTGECRVASPSSVGLMFYPFILGYQQMHPGLTVTYDFAFNAEIVDAVLAGRFDVGIVTDVTKHPDLDFEPWHQEPLCLLVPADFTGTTISELMALGFMNYSDGINNASSLLRRNFAGEFRSMSHFPQQGFSNEVSMVLDAVARGLGFTVVPRSVMETSPWQRQVKELPLAESVYETLYVVTKRGVEMPRRYQQLLGEFRLQRRNVLYGYAEAPPLEDEA”, the “soluble on expression in E. coli” value was “not soluble”.

With “MSLQKKAMIIYNPAAGKNKFRKLLPDAEKILTEADFEVTLVPSTPAPKSTTFIAKQAAEAGFDVVIAAGGDGTVNEVVNGLMQVDTPPKLGVLPVGTTNDYARALNFAKNPLEALRIIAKQETIRVDIGKANETEFFINNAAGGKITEITYAVKESMKSKWGRLAYLFSGLTVLPKLSPVYVEIAYNDKIFKGEILLFFVNKSNSVGGMETLCPPAELNSGMFELLILKKVSPKTLFQLFASIKKGTHLSSPHVIHARTNKVTINSEADLNVSYDGVYGGKAPYTLEVIPEALEVFADTNRISSRLRGEGHHHHHH”, the “soluble on expression in E. coli” value is reported as “soluble”.

“MMNEKNPPLVSILIPTYNRPHYFKIALESALAQTYSNIEIIIGDDSTNDETATLIREQYLPNYKNITYIRNTPTLGQFHNDLMLIEKSNGEYINFLMDDDVFYKHKIQKMMTYFEQDPNKNLALVTSYRVRIDDHGNLIGDSHPTQRLYSEDTPLNGIFLGNWMLKGGHNIIGEPTTTLFRKELLTEPFGTLKERQYSCSVDMASWISLLSKGNAIYISEPLSQFRYHAGQQIHNKLLQGCEDFTHLVITAKEYGFLQNTTDYRAALLSAYQWCKSSLKYYLHQLDIFPDAHVRLSHCLDIIIKELNNLEHHHHHH”: the “soluble on expression in E. coli” value is recorded as “soluble”.

As for “MKIGVVGLGLIGASLAGDLRRRGHYLIGVSRQQSTCEKAVERQLVDEAGQDLSLLQTAKIIFLCTPIQLILPTLEKLIPHLSPTAIVTDVASVKTAIAEPASQLWSGFIGGHPMAGTAAQGIDGAEENLFVNAPYVLTPTEYTDPEQLACLRSVLEPLGVKIYLCTPADHDQAVAWISHLPVMVSAALIQACAGEKDGDILKLAQNLASSGFRDTSRVGGGNPELGTMMATYNQRALLKSLQDYRQHLDQLITLISNQQWPELHRLLQQTNGDRDKYVE”, the “soluble on expression in E. coli” value was “soluble”.

For the sequence “MRVLIRSSASGSEYWDTEEKRNVFVPKGQEPDFEVTENPESMLSKEADLHVGGLPITVGNVTIDTDGIKGERLLTTASAADDEEQDELVPSDDESVVLEEMNVKELREYAKRKGIEIPSAVRAKGEILNIIKESE”, the “soluble on expression in E. coli” value is given as “not soluble”.

Turning to “MGHHHHHHSHMSASYISDPVIAGTNMTWSQEKQSLLMQGEILVETRSHTAWGGAVSACMYLPLRRSQVWQQITDYPRWVQYFPDITKSEVLQRGEVKRLYQAAQKAFFFFTAQVEIYLNVVEVIGHKIQFRMEKGTFVDFTANLELKDCGDGTLLIYGVQATPNIPVPSIFIQQAMNFELPTNMRKMRQVISNSVNS”, the “soluble on expression in E. coli” value is on record as “not soluble”.

“GMQGAGRLMQPRPDSAFVHDVRVTWGDCDPAKIAYTGHLPRFALEAIDAWWSEYHGPGGWYHLELDTNVGTPFVRLEMDFKSPVTPRHILKCHTWPTRLGTKSITFRVDGVQDGVTCFVGAFTCVFTIADQFKSQPAPDHLRALIEPHIPA”: the “soluble on expression in E. coli” value was “soluble”.

As for “MNDIWWQTYGEGNCHLVLLHGWGLNAEVWHCIREELGSHFTLHLVDLPGYGRSSGFGAMTLEEMTAQVAKNAPDQAIWLGWSLGGLVASQMALTHPERVQALVTVASSPCFSAREGWPGIKPEILGGFQQQLSDDFQRTVERFLALQTLGTETARQDARTLKSVVLAQPMPDVEVLNGGLEILKTVDLREALKNVNMPFLRLYGYLDGLVPRKIVPLLDTLWPHSTSQIMAKAAHAPFISHPAAFCQALMTLKSSL”, the “soluble on expression in E. coli” value was “not soluble”.

As for “MSKLRFRVVETAFKKKAVEVATPAERPSEYFGKYVFNKEKMFKYLPSKVYNALIDAIDNGAPLDRSIADEVAAGMKKWAVEMGVTHYTHWFAPLTEGTAEKHDAFVEHDGKGGMMEEFTGKLLVQQEPDASSFPNGGIRNTFEARGYSAWDPSSPAFIVDDTLCIPTVFIAYTGEALDYKAPLLKALRAVDKAATAVCHYFNPEVKKVVAYLGWEQEYFLVDEGLYAARPDLLMTGRTLMGHDSAKNQQLEDHYFGAIPTRVAAFMKDLEIEALKLGIPVKTRHNEVAPNQFELAPIFEECNLANDHNLLIMSLMRKVSRRHGFRVLLHEKPFKGVNGSGKHNNWSLGTDTGILLMGPGKTPEDNLRFVTFVVNTLMAVYRHNGLLKASISSATNAHRLGANEAPPAIISSFLGKQLSQVLDHIENSTKDDLINLSGKQGMKLDIPQIPELLIDNTDRNRTSPFAFTGNRFEFRAVGSEANCASAMIALNAAVAEQLMKFKKDVDALIEKGEPKVSAILEVIRGYIKECKAIHFDGNGYSDEWKVEAARRGLDCETSVPVIFDNYLKPETIAMFEAIGVMTKKELEARNEVKWETYTKKIQIEARVLGDLAMNHIIPVATQYQTDLINNVYKMQSLFPADKAARLSAKNLELIEEIADRTAFIKEHVDAMIEARKVANKIESEREKAIAYHDTIVPALEEIRYHIDKLELIVDNQMWTLPKYRELLFVR”, the “soluble on expression in E. coli” value was “soluble”.
